The target of experiment [1] is T1, GST-tagged C-terminal of PfCullin-1 (601-829 aa) (P. falciparum, UniProt Q8IAU5 601-829).
T1 construct: P. falciparum Cullin-1 (PfCullin-1, PF3D7_0811000), C-terminal coding region, residues 601-829, amplified from cDNA, in pGEX-6P-1; also called GST/Cul1C; GST/PfCul1C; source: E. coli BL21(DE3), purified (glutathione agarose, native conditions); not shown: GST, N-terminal, kept
T1 sequence (looked up): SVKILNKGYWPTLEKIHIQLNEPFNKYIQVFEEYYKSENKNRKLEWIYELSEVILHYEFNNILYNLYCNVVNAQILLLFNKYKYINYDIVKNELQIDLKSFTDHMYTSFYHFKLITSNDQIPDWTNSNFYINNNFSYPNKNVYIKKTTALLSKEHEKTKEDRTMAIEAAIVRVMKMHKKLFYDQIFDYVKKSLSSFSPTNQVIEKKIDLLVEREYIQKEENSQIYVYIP
Briefly: far-Western, overlay or dot blot; dot blot protein overlay: different amounts of HisSkp, HisSUMO/Rbx or HisSUMO spotted on nitrocellulose, blocked (3% BSA in PBS-T), overlaid with 10 μg of GST or GST-tagged protein for 12 h at 4°C, detected with anti-GST antibodies. As to conditions: both partners purified.

In experiment [2] the target is T2, GST-tagged N-terminal of PfCullin-1 (1-300 aa) (P. falciparum, UniProt Q8IAU5 1-300).
T2 construct: P. falciparum Cullin-1 (PfCullin-1, PF3D7_0811000), N-terminal coding region, residues 1-300, in pGEX-6P-1; also called GST/Cul1N; GST/PfCul1N; source: E. coli BL21(DE3), purified (glutathione agarose, native conditions); not shown: GST, N-terminal, kept
T2 sequence (looked up): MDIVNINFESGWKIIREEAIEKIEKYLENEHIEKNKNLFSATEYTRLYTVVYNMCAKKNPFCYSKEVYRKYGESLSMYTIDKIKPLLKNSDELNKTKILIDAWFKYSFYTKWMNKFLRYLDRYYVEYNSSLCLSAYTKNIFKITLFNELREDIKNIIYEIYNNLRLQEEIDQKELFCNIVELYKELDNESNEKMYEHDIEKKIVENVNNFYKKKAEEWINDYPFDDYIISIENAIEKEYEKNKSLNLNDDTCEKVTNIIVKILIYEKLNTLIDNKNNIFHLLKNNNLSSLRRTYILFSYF
The description is as above. As to conditions: both partners purified.

B1: 6×His/SUMO-tagged PfRbx1 (natural protein, P. falciparum, UniProt O77367 1-107, looked up)
chain: MADNITNDKRDIFKIHKWSAVAAWSWDISVDNCAICRNHIMDLCIECQAKTTDHENDKDKKIDKEGCTVAWGVCNHAFHLHCISRWIKARQVCPLDNTTWEFQKATD
notes: P. falciparum Rbx1 (PfRbx1, PF3D7_0319100), complete coding region, subcloned into pSMO; also called HisSUMO/Rbx; HisSUMO/PfRbx1; source: E. coli Rosetta-gami 2(DE3) pLysS, purified (Ni-NTA, native conditions); not shown: His6, N-terminal, kept; SUMO, N-terminal, kept
In the case of B1, the binding result in experiment [1] is on record as “binds”.

B2: 6×His-tagged PfSkp1 (natural protein, P. falciparum, UniProt Q8ID38 1-162, looked up)
chain: MKNDKIKLVSFEGDEFIVDKNTASMSTVIMNILEVMTAEEDTIPLPNIKTPILKKIIEYMEYHINNPADEIPKPLITSNLQDVVSSWDFDFVNTDKETLYELIEASNYLDIKPLLDLTCGKIASMMKDKTTEEIRAEFDIVNDFTREEEKQIREENRWCGDI
notes: P. falciparum Skp1 (PfSkp1, PF3D7_1367000), complete coding region amplified from genomic DNA, in pET28a; also called HisSkp; HisPfSkp1; source: E. coli Rosetta-gami 2(DE3) pLysS, purified (Ni-NTA, native conditions); not shown: His6, N-terminal, kept
With B2, the binding result in experiment [2] is recorded as “binds”.

Values taken from publication PMC10927090, “Plasmodium falciparum contains functional SCF and CRL4 ubiquitin E3 ligases, and CRL4 is critical for cell division and membrane integrity” (PLOS Pathogens, 2024).
